Measurements taken from publication PMC7567106, “Generalized enzymatic mechanism of catalysis by tetrameric L-asparaginases from mesophilic bacteria” (Scientific Reports, 2020).
One block for each compound: values may come before it.

Legend:
[1] = biological target: T1, EcAII (type II L-asparaginase from E. coli) (Escherichia coli, UniProt P00805); assay: Q-TOF LC/MS of substrate, product and hydroxamate (data not shown); assay type: biochemical; conditions: 25 mM HEPES pH 7.7; 8 mM substrate, 27.8 nM enzyme, 0.4 M NH2OH
T1 construct: gene ansB; periplasmic enzyme, homotetramer; preparation not described here
T1 sequence (P00805 23-348): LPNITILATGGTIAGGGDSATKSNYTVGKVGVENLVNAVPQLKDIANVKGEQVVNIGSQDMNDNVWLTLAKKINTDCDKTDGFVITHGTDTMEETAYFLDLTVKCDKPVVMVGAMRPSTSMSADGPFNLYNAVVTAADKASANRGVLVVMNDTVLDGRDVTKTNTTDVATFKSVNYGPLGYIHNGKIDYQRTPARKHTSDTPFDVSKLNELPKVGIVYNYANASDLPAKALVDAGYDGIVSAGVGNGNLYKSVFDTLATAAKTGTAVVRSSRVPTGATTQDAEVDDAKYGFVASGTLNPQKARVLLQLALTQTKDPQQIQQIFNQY

[2] = biological target: L-glutaminase-asparaginase from Pseudomonas 7A, K173M variant (Pseudomonas 7A) (UniProt Q88K39); assay: crystal structure; co-crystallised with small ligands, hanging drop; protein 12.5-13.5 mg/ml in 50 mM HEPES pH 7.0, 200 mM NaCl; four protomers in the asymmetric unit as two intimate dimers (A,B) and (C,D)
[3] = biological target: L-glutaminase-asparaginase from Pseudomonas 7A, wild type (Pseudomonas 7A) (UniProt Q88K39); assay: as above

Compound: NC(=O)C[C@H](N)C(=O)O [L-Asn]
Q-TOF LC/MS of substrate, product and hydroxamate (data not shown) [1]: EcAII(wt) with L-Asn were monitored (not shown)

stoichiometry N [2]: 4
Compound: L-glutaminase-asparaginase from Pseudomonas 7A, K173M variant (from UniProt Q88K39 26-362) (enzyme)

stoichiometry N [3]: 4
Compound: L-glutaminase-asparaginase from Pseudomonas 7A, wild type (from UniProt Q88K39 26-362) (enzyme)
